Measured values from paper PMC5658604.

Legend:
[1] = system: TtSmtB (Thermus thermophilus HB27); assay: EMSA; conditions: cooperative, EMSA as in Fiorentino et al., 2007 (buffer not given here), 0-15 uM protein, 1 nM probe in the competition assay, footprinting in binding buffer, DNase I 1 min …
[2] = biological target: T1, TtSmtB (Thermus thermophilus HB27) (UniProt Q72KG0); assay: EMSA; conditions: EMSA as in Fiorentino et al., 2007 (buffer not given here), 0-15 uM protein, 1 nM probe in the competition assay; footprinting in binding buffer, DNase I 1 min …
T1 sequence: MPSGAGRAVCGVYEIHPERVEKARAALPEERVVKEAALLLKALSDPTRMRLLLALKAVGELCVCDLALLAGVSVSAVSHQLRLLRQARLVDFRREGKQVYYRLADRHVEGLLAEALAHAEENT

[3] = biological target: T1, TtSmtB (Thermus thermophilus HB27); assay: competition; conditions: EMSA as in Fiorentino et al., 2007 (buffer not given here), 0-15 uM protein, 1 nM probe in the competition assay; footprinting in binding buffer, DNase I 1 min …
[4] = biological target: T1, TtSmtB (Thermus thermophilus HB27); assay: DNase I footprinting; conditions: EMSA as in Fiorentino et al., 2007 (buffer not given here), 0-15 uM protein, 1 nM probe in the competition assay, DNase I 1 min …

TtsmtBp (TtsmtB promoter)
Kd ([1]; multiple complexes): 5 µM

CTCCTTGACCACCCTCTCCTCGGGCAGGGCGGCCCGGGCCTTCTCCACCCTTTCCGGGTGGATCTCGTAGACCCCGCAGACCGCCCTACCAGCCCCGCTTGGCAAGCCTTTCCTCCTCCTTGAGCTGGTCCAGGTTGATGCCCACCATG (double strand) [TtsmtBp (TtsmtB promoter)]
Kd [2]: 5 µM

0354p (TTC0354 promoter)
Kd ([1]; apparent, Hill fit): 1.4 µM

AGAGGACGAGGACCCGCATCCTCCAAAGCCTAGCCCCCCTTCGGTCAGGGGGAGATCATGCGCTCAAGCTGGGCCACC (double strand) [TtarsCp (TtarsC promoter)]
binding [2]: binds

CGCCTCGCCGACCGGCACGTGGAGGGCCTGTTGGCGGAGGCCCTGGCCCACGCGGAAGAAAACACTTGACCAGTTGCTCAAATGATGCTACCCTGGGGGCATGAAGGCTCCCAGAGTGCGCGTCTTCCGGGTAGAGGGCATGG (double strand) [0354p (TTC0354 promoter)]
Kd [2]: 1.4 µM
binding [3]: binds
binding [4]: binds
